We go through 4 molecules from paper PMC10409766, “Cryo-EM structures of human zinc transporter ZnT7 reveal the mechanism of Zn^2+ uptake into the Golgi apparatus” (Nature Communications, 2023).

Series [1] has as its target T1, human ZnT7 (hZnT7) with an N-terminal PA-tag (human, UniProt Q8NEW0).
T1 construct: human zinc transporter ZnT7, UniProt Q8NEW0; cDNA synthesized with codon optimization; the final model holds residues 22-376; In the antibody screening the purified protein was reconstituted into (biotinylated) proteoliposomes; also called hZnT7 WT; wild-type hZnT7
Put plainly: ELISA + SEC; liposome ELISA on biotinylated hZnT7 proteoliposomes immobilised on streptavidin-coated microplates (with negative selection on SDS-denatured hZnT7); formation of stable complexes by fluorescence-detection SEC.

The target in series [2] is T1, human ZnT7 (hZnT7) with an N-terminal …. The series is described as follows: cryo-EM structure; single-particle cryo-EM of hZnT7-Fab complexes purified by SEC in 0.02% GDN (Talos Arctica for first maps, CRYO ARM 300II for final data); samples with 1 mM EDTA, with 10 µM Zn2+ or with 200 or 300 µM Zn2+ added. Conditions: both partners purified.
Series [3] concerns the molecule itself. The series is described as above.

B1: mouse monoclonal antibody YN7114-08 against hZnT7 (parent of Fab#1) (antibody, V domains shown)
VH: EVQLQESGPGLVAPSQSLSITCTVSGFSLTNYAVHWVRQSPGKGLEWLGVIWSNGRTDYNAAFISRLSISKDNSKSQVFFKMNSLQADDTAIYYCARKLAYEGAMDYWGQGTSVTVSS
VL: DIVLTQSPASLAVSLRRRATISCRASESVDGYGHSFMHWYQQKSGQPPKLLIYRASNLESGVPARFSGSGSRTDFTLTIDPVEADDAATYYCQQSNEDPYTFGSGTKLEIK
notes: Whole antibody as screened by liposome ELISA and fluorescence-detection SEC; source: mouse hybridoma (MRL/lpr mice immunised with hZnT7 proteoliposomes)
Regarding B1, in series [1], the binding result is “binds”.

B2: Fab#1 (YN7114-08), Fab fragment of a mouse monoclonal antibody against hZnT7 (Fab, V domains shown)
VH: EVQLQESGPGLVAPSQSLSITCTVSGFSLTNYAVHWVRQSPGKGLEWLGVIWSNGRTDYNAAFISRLSISKDNSKSQVFFKMNSLQADDTAIYYCARKLAYEGAMDYWGQGTSVTVSS
VL: DIVLTQSPASLAVSLRRRATISCRASESVDGYGHSFMHWYQQKSGQPPKLLIYRASNLESGVPARFSGSGSRTDFTLTIDPVEADDAATYYCQQSNEDPYTFGSGTKLEIK
notes: the model holds Fab heavy chain residues 1-234; also in the deposited PDB entries; the model holds Fab light chain residues 1-218; also called the Fab fragment; source: Fab fragment of a mouse monoclonal antibody (hybridoma, MRL/lpr mice immunised with hZnT7 proteoliposomes)
B2: in series [2], the binding result is listed as “binds”.

B3: human ZnT7 (hZnT7) with an N-terminal PA-tag (natural protein)
chain: MLPLSIKDDEYKPPKFNLFGKISGWFRSILSDKTSRNLFFFLCLNLSFAFVELLYGIWSNCLGLISDSFHMFFDSTAILAGLAASVISKWRDNDAFSYGYVRAEVLAGFVNGLFLIFTAFFIFSEGVERALAPPDVHHERLLLVSILGFVVNLIGIFVFKHGGHGHSHGSGHGHSHSLFNGALDQAHGHVDHCHSHEVKHGAAHSHDHAHGHGHFHSHDGPSLKETTGPSRQILQGVFLHILADTLGSIGVIASAIMMQNFGLMIADPICSILIAILIVVSVIPLLRESVGILMQRTPPLLENSLPQCYQRVQQLQGVYSLQEQHFWTLCSDVYVGTLKLIVAPDADARWILSQTHNIFTQAGVRQLYVQIDFAAM
notes: human zinc transporter ZnT7, UniProt Q8NEW0; cDNA synthesized with codon optimization; the final model holds residues 22-376; In the antibody screening the purified protein was reconstituted into (biotinylated) proteoliposomes; also called hZnT7 WT; wild-type hZnT7
Turning to B3, the “stoichiometry N” value in series [3] was determined as 2.

B4: hZnT7ΔHis-loop (residues His176 to Pro221 deleted), PA-tagged (natural protein, human)
chain: MLPLSIKDDEYKPPKFNLFGKISGWFRSILSDKTSRNLFFFLCLNLSFAFVELLYGIWSNCLGLISDSFHMFFDSTAILAGLAASVISKWRDNDAFSYGYVRAEVLAGFVNGLFLIFTAFFIFSEGVERALAPPDVHHERLLLVSILGFVVNLIGIFVFKHGGHGHSHGSGHGHSSLKETTGPSRQILQGVFLHILADTLGSIGVIASAIMMQNFGLMIADPICSILIAILIVVSVIPLLRESVGILMQRTPPLLENSLPQCYQRVQQLQGVYSLQEQHFWTLCSDVYVGTLKLIVAPDADARWILSQTHNIFTQAGVRQLYVQIDFAAM
notes: human zinc transporter ZnT7, UniProt Q8NEW0, with the major portion of the His-loop (His176 to Pro221) deleted; Primers are in Supplementary Data 1; The dimer (copies 2) follows from the 'OF-OF form' and the C2 symmetry; also called hZnT7∆His-loop; pcDNA3.1-PA-hZnT7ΔHis-loop; source: HEK293T, transfected (pcDNA3.1, PEI), purified (anti-PA-tag antibody beads, SEC)
For B4, in series [3], the binding result is “binds”.
